# Source: patent publication US20240018252A1
# Positions count from the first letter of the chain named. Numbers in names are those of the source. Where “and” joins values, the source holds several entries; their conditions need not be identical. Identical values can stand only once.
# B1: C01_Rd4_6nM_C12/h2B4 anti-BCMA/CD3 bispecific (bispecific antibody, V domains shown)
# VH 1: EVQLLESGGGLVQPGGSLRLSCAASGFTFSSYPMSWVRQAPGKGLEWVSAIGGSGGWSYYADSVKGRFTISRDNSKNTLYLQMNSLRAEDTAVYYCARYWPMDSWGQGTLVTVSS
# VL 1: EIVLTQSPGTLSLSPGERATLSCWLSQSVSSTYLAWYQQKPGQAPRLLIYDASSRAPGIPDRFSGSGSGTDFTLTISRLEPEDFAVYYCQQYSEWPLTFGQGTKVEIK
# VH 2: EVQLVESGGGLVQPGGSLRLSCAASGFTFSDYYMTWVRQAPGKGLEWVAFIRNRARGYTSDHNASVKGRFTISRDNAKNSLYLQMNSLRAEDTAVYYCARDRPSYYVLDYWGQGTTVTVSS
# VL 2: DIVMTQSPDSLAVSLGERATINCTSSQSLFNVRSRKNYLAWYQQKPGQPPKLLISWASTRESGVPDRFSGSGSGTDFTLTISSLQAEDVAVYYCKQSYDLFTFGSGTKLEIK
# B2: COMBO_Rd4_0.6nM_C22/h2B4 anti-BCMA/CD3 bispecific (bispecific antibody, V domains shown)
# VH 1: B1 VH 1 with P33A, S35N, G52S, G53D, W57S, S58R, Y59W, A97T, S104I
# VL 1: B1 VL 1 with W24R, L25A, Q27V, S28R, I49M, S54I, P57T, S93M, E94K
# VH 2: B1 VH 2
# VL 2: B1 VL 2
# B3: A02_Rd4_0.6nM_C01/h2B4 anti-BCMA/CD3 bispecific (bispecific antibody, V domains shown)
# VH 1: B1 VH 1 with P33A, S35N, G52L, G53S, W57S, S58T, S104I
# VL 1: B1 VL 1 with W24R, L25G, S26G, T32S, I49M, S54I, P57T, S93Q, E94S
# VH 2: B1 VH 2
# VL 2: B1 VL 2
# B4: A02_Rd4_6nM_C16/h2B4 anti-BCMA/CD3 bispecific (bispecific antibody, V domains shown)
# VH 1: B1 VH 1 with P33A, S35N, G52S, G53D, S54F, W57S, S58T, S104I
# VL 1: B1 VL 1 with W24R, L25A, S31D, T32L, I49M, S54I, P57T, S93Q, E94T
# VH 2: B1 VH 2
# VL 2: B1 VL 2
# B5: P5A2/h2B4 anti-BCMA/CD3 bispecific (bispecific antibody, V domains shown)
# VH 1: B1 VH 1 with P33A, S35N, G52S, G53D, W57S, S58T, S104I
# VL 1: B1 VL 1 with W24R, L25A, T32S, I49M, S54I, P57T, S93G, E94S
# VH 2: B1 VH 2
# VL 2: B1 VL 2
# B6: A02_Rd4_6nM_C01/h2B4 anti-BCMA/CD3 bispecific (bispecific antibody, V domains shown)
# VH 1: B1 VH 1 with P33A, S35N, G52T, G53A, W57S, S58T, D103S, S104L
# VL 1: B1 VL 1 with W24R, L25A, S31A, T32Y, I49M, S54I, P57T, S93E, E94R
# VH 2: B1 VH 2
# VL 2: B1 VL 2
# B7: Combo_Rd4_0.6nM_C29/h2B4 anti-BCMA/CD3 bispecific (bispecific antibody, V domains shown)
# VH 1: B1 VH 1 with W57S, S58L, Y59P, S104I
# VL 1: B1 VL 1 with W24R, L25A, T32S, I49M, S54I, P57T, S93Q, E94S
# VH 2: B1 VH 2
# VL 2: B1 VL 2
# B8: P5C1/h2B4 anti-BCMA/CD3 bispecific (bispecific antibody, V domains shown)
# VH 1: B1 VH 1 with W57S, S58T
# VL 1: B1 VL 1 with W24R, L25A, E94T, W95S
# VH 2: B1 VH 2
# VL 2: B1 VL 2
# B9: A02_Rd4_6nM_C01 N297Q/K222R Aclys vc0101 (antibody, V domains shown)
# VH: B1 VH 1 with P33A, S35N, G52T, G53A, W57S, S58T, D103S, S104L
# VL: B1 VL 1 with W24R, L25A, S31A, T32Y, I49M, S54I, P57T, S93E, E94R
# modifications: N297Q and K222R (EU) in the human IgG1 constant region; AcLys-Val-Cit-PABC-Aur0101 joined by transglutaminase to the glutamine at 297
# B10: Combo_Rd4_0.6nM_C29 LCQ05/K222R Aclys vc0101 (antibody, human IgG1, part only)
# heavy: B1 VH 1 with W57S, S58L, Y59P, S104I
# light: B1 VL 1 with W24R, L25A, T32S, I49M, S54I, P57T, S93Q, E94S
# chain: GGLLQGPP
# modifications: LCQ05 tag; Aclys vc0101 drug conjugate
# B11: Combo_Rd4_0.6nM_C29 N297Q/K222R Aclys vc0101 (antibody, V domains shown)
# VH: B1 VH 1 with W57S, S58L, Y59P, S104I
# VL: B1 VL 1 with W24R, L25A, T32S, I49M, S54I, P57T, S93Q, E94S
# modifications: N297Q and K222R (EU) in the human IgG1 constant region; AcLys-Val-Cit-PABC-Aur0101 joined by transglutaminase to the glutamine at 297
# B12: A02_Rd4_6nM_C16 N297Q/K222R Aclys vc0101 (antibody, V domains shown)
# VH: B1 VH 1 with P33A, S35N, G52S, G53D, S54F, W57S, S58T, S104I
# VL: B1 VL 1 with W24R, L25A, S31D, T32L, I49M, S54I, P57T, S93Q, E94T
# modifications: N297Q and K222R (EU) in the human IgG1 constant region; AcLys-Val-Cit-PABC-Aur0101 joined by transglutaminase to the glutamine at 297
# B13: h2B4-1d_Ep (bispecific antibody, part only; not given: anti-EpCam arm, constant regions, V domains shown, not shown: another chain or arm of the molecule; a dimerising Fc or GST; small tags and cut ends)
# VH: B1 VH 2
# VL: B1 VL 2
# B14: h2B4-yaesTK_Ep (bispecific antibody, part only; not given: anti-EpCam arm, constant regions, V domains shown, not shown: another chain or arm of the molecule; a dimerising Fc or GST; small tags and cut ends)
# VH: B1 VH 2 with H62Y, N63A, A64E
# VL: B1 VL 2 with T24K
# B15: h2B4-TK_Ep (bispecific antibody, part only; not given: anti-EpCam arm, constant regions, V domains shown, not shown: another chain or arm of the molecule; a dimerising Fc or GST; small tags and cut ends)
# VH: B1 VH 2
# VL: B1 VL 2 with T24K
# B16: h2B4-hnpsTK_Ep (bispecific antibody, part only; not given: anti-EpCam arm, constant regions, V domains shown, not shown: another chain or arm of the molecule; a dimerising Fc or GST; small tags and cut ends)
# VH: B1 VH 2 with A64P
# VL: B1 VL 2 with T24K
# B17: h25A8-B5_Ep (bispecific antibody, part only; not given: anti-EpCam arm, constant regions, V domains shown, not shown: another chain or arm of the molecule; a dimerising Fc or GST; small tags and cut ends)
# VH: EVQLVESGGGLVKPGGSLRLSCAASGFTFSTYAMNWVRQAPGKGLEWVGRIRSKINNYATYYAESVKGRFTISRDDSKNTLYLQMNSLKTEDTAVYYCVRHETLRSGISWFASWGQGTLVTVSS
# VL: QAVVTQEPSLTVSPGGTVTLTCRSSTGAVTTSNYANWVQQKPGQAPRGLIGGTNTRAPGTPARFSGSLLGGKAALTLSGAQPEDEAEYYCVLWYNNYWVFGGGTKLTVL
# B18: h25A8-B8_Ep (bispecific antibody, part only; not given: anti-EpCam arm, constant regions, V domains shown, not shown: another chain or arm of the molecule; a dimerising Fc or GST; small tags and cut ends)
# VH: B17 VH
# VL: B17 VL with Y97H
# B19: h25A8-B13_Ep (bispecific antibody, part only; not given: anti-EpCam arm, constant regions, V domains shown, not shown: another chain or arm of the molecule; a dimerising Fc or GST; small tags and cut ends)
# VH: B17 VH
# VL: B17 VL with S24T, Y97H
# B20: h25A8-C8_Ep (bispecific antibody, part only; not given: anti-EpCam arm, constant regions, V domains shown, not shown: another chain or arm of the molecule; a dimerising Fc or GST; small tags and cut ends)
# VH: B17 VH with S30N
# VL: B17 VL with Y97H
# B21: h25A8-B12_Ep (bispecific antibody, part only; not given: anti-EpCam arm, constant regions, V domains shown, not shown: another chain or arm of the molecule; a dimerising Fc or GST; small tags and cut ends)
# VH: B17 VH
# VL: B17 VL with S24A, Y97H
# Molecular target: human BCMA (B-Cell Maturation Antigen) on myeloma cells (human) (UniProt Q02223)
# Assay: cell-based or functional assay
# Sequence of human BCMA (B-Cell Maturation Antigen) on myeloma cells (human) (Q02223 whole entry): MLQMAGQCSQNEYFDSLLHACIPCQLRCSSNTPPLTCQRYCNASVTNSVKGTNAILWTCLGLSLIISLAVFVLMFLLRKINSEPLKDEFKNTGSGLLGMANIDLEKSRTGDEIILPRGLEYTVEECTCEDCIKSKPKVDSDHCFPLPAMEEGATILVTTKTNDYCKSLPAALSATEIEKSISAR
Binder,"EC50, T-cell mediated cytotoxicity (LDH release, 20 h) on KMS12BM (BCMA+) cells [pM]","EC50, T-cell mediated cytotoxicity (LDH release, 20 h) on KMS12PE (BCMA+++) cells [pM]","EC50, T-cell mediated cytotoxicity (LDH release, 20 h) on MOLP8 (MOLP8+) cells [pM]","EC50 (nM), killing of primary myeloma cells in bone marrow mononuclear cells of patient MM00146 (flow cytometry, day 5) [nM]","EC50 (nM), killing of primary myeloma cells, patient MM00146, E:T 1:1 [nM]","EC50 (nM), killing of primary myeloma cells, patient MM00147, E:T 2:1 [nM]","EC50 (nM), killing of primary myeloma cells, patient MM00151, E:T 3:1 [nM]","EC50 (nM), killing of primary myeloma cells, patient MM00152, E:T 1:2 [nM]"
B1,415,189,850,,,,,
B2,49,115,65,,,,,
B3,78,73,550,0.064,,,,
B4,52,186,315,0.029,,,,
B5,1510,371,5230,0.946,,,,
B6,57,,60,,,,,
B7,49,175,201,,0.035,0.031,0.02,0.289
B8,4120,581,,,,,,

# Molecular target: human BCMA on BCMA-expressing tumor cells (human) (UniProt Q02223)
# Assay: cell-based or functional assay
# Sequence of human BCMA on BCMA-expressing tumor cells (human) (Q02223 whole entry): as above
Binder,"EC50, cell viability (CellTiter-Glo, 96 h), KMS12BM LUCGFP (+)","EC50, cell viability (CellTiter-Glo, 96 h), L363 LUCGFP (+)","EC50, cell viability (CellTiter-Glo, 96 h), MM1.S LUCGFP (BCMA++)"
B9,18.7 nM and 2.8 µg/mL,2.53 nM and 0.38 µg/mL,0.26 nM and 0.04 µg/mL
B10,10.9 nM and 1.64 µg/mL,1.67 nM and 0.25 µg/mL,0.13 nM and 0.02 µg/mL
B11,0.99 nM and 0.15 µg/mL,0.66 nM and 0.1 µg/mL,0.11 nM and 0.02 µg/mL
B12,38.7 nM and 5.81 µg/mL,9.68 nM and 1.45 µg/mL,0.8 nM and 0.12 µg/mL

# Molecular target: human CD3 (huCD3ed) (human) (UniProt P07766)
# Assay: Biacore SPR, bispecific hIgG2dA format, 37 C; CD3 antigen not given
# Sequence of human CD3 (huCD3ed) (human) (P07766 23-126, chain 1 of 2): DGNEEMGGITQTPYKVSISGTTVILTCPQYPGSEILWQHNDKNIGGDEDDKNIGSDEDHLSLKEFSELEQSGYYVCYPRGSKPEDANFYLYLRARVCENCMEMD
# Sequence of human CD3 (huCD3ed) (human) (P04234 22-105, chain 2 of 2, further chain): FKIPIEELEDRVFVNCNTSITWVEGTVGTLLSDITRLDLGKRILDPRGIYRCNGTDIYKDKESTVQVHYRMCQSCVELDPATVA
Binder,Kd [pM],koff [s⁻¹],kon [M⁻¹ s⁻¹],t½ [s]
B13,40400,0.0237,586000,29.4
B14,54400,0.0258,474000,27
B15,31000,0.0213,687000,32.4
B16,31200,0.0235,754000,29.4
B17,45000,0.0581,1.29e+06,12
B18,18700,0.0222,1.19e+06,31.2
B19,18300,0.0219,1.2e+06,31.8
B20,25100,0.0301,1.2e+06,22.8
B21,21000,0.0241,1.15e+06,28.8
